Experimental data reported in publication PMC5332414, “Mycobacterium abscessus subsp. abscessus Is Capable of Degrading Pseudomonas aeruginosa Quinolone Signals” (Frontiers in Microbiology, 2017).

Assays:
[1] = system: CCCCCCCc1[nH]c2ccccc2c(=O)c1O; experiment: purified protein; assay type: biochemical, Mycobacteroides abscessus; conditions: apparent, co-substrate O2, 50 mM Tris, 2 mM EDTA, 10% PEG 1500, 4% (v/v) DMSO, pH 8.0, 30°C
AqdB (His8-MBP-AqdB) = molecular target: T1, AqdB (His8-MBP-AqdB) (Mycobacteroides abscessus, UniProt B1MFK1); experiment: biotransformation by recombinant E. coli cells, HPLC; assay type: cell-based; conditions: 20 μM HHQ, LB medium; E. coli Rosetta without aqdB did not convert HHQ
T1 construct: His8-MBP fusion, pET28b(+), expressed in E. coli Rosetta(DE3) whole cells
T1 sequence (B1MFK1 whole entry, the tested form may be a part): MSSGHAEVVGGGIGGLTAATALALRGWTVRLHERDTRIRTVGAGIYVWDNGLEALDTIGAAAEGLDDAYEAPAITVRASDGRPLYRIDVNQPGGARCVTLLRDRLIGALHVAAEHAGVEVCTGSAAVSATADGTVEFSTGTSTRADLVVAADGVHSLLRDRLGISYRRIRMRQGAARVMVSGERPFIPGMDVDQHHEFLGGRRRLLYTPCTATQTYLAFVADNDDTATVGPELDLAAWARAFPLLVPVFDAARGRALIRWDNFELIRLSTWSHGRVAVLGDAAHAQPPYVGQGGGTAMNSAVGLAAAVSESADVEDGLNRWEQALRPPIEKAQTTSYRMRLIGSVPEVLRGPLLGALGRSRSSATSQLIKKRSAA

| Compound | Km [1] [µM] | kcat [1] [s⁻¹] | biotransformation by recombinant E. coli cells, HPLC (AqdB (His8-MBP-AqdB)) |
| --- | --- | --- | --- |
| AqdC (AqdC^I) (Mycobacteroides abscessus ATCC 19977) | 37.2 ± 9.8 | 97.8 ± 19.1 |  |
| CCCCCCCc1[nH]c2ccccc2c(=O)c1O [PQS, 2-heptyl-3-hydroxy-4(1H)-quinolone] |  |  | E. coli cells producing the His8-MBP-AqdB protein converted HHQ to PQS |
| CCCCCCCc1cc(=O)c2ccccc2[nH]1 [HHQ, 2-heptyl-4(1H)-quinolone] |  |  | E. coli cells producing the His8-MBP-AqdB protein converted HHQ to PQS |
